Data published in patent US20220064254A1 (Janssen / Centocor, published 2022).

Tests used:
[1] = molecular target: T1, biotinylated recombinant hK2 protein (human, UniProt P20151 25-261, biotin label (EZ-Link Sulfo-NHS-LC-Biotin)); experiment: flow cytometry; JNL (Jurkat NFAT-luciferase) cells transduced with the CAR, stained with biotinylated hK2 then streptavidin-PE; UTD control gate 0.021
T1 construct: In-house biotin-labelled recombinant hK2 used as the flow cytometry reagent; also called biotinylated hK2; Biotin-Hk2 protein
T1 sequence (P20151 25-261): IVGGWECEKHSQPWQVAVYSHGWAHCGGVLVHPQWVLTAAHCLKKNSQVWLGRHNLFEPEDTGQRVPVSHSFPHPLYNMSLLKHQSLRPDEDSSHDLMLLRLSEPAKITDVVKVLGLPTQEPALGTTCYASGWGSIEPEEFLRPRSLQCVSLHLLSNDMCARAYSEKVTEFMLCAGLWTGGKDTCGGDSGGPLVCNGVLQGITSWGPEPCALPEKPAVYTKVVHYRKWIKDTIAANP
Procedure: Lentiviral transduction was performed as follows. JNL cells were harvested and resuspended to 1E6/ml. 500 μl of JNL cells and lentiviral virus were added at a MOI of 3, and mixed by pipetting up and down. The mixture was incubate in a 37° C. incubator for 24 hours. 500 μl JNL media was added to each well, with culturing continued in a 37° C. incubator. The cells were transferred to a T25 flask on day 4. At days 5-6, transduction validation was performed. […] The JNL cells were maintained at 5×10⁵/ml until enough cells were obtained to either freeze down or use in the assay.

[2] = molecular target: T1, biotinylated recombinant hK2 protein; experiment: flow cytometry; primary human T cells lentivirally transduced with the CAR (MOI 3), day 14, stained with biotinylated hK2 (1 µg/ml) then streptavidin-PE; UTD control gate 0.086
Procedure: The cells were resuspended in 100 μl of Biotin labeled hK2 (1 μg/ml diluted in FACS buffer) and incubated on ice for 30 minutes. 100 μl of FACS buffer was added, and spun washed at 4° C. The spin wash was repeated after adding another 200 μl FACS buffer. Staining with 100 μl of master solution containing secondary antibody SA-PE (1:250), live dead fixable stain (1:500), αCD3, αCD4 and αCD8 antibodies was performed on ice for 30 minutes. 100 μl FACS buffer was added and spun wash at 4° C., discarded and resuspended in 200 μl FACS buffer before spin washing at 4° C. The samples were resuspended in 100 μl FACS Buffer before analyzing by flow cytometry.

Binder	percent of cells in the PE-positive gate (hK2 CAR) [1] [%]	percent of CD3+ T cells in the PE-positive gate (hK2 CAR) [2] [%]
CAR9 (LH_LCB7_HCG5_20AA) (other, also called construct 9; pDR000083444) DIVLTQSPDSLAVSLGERATINCKASESVEYFGTSLMHWYQQKPGQPPKLLIYAASNRESGVPDRFSGSGSGTDFTLTISSVQAEDVAVYYCQQTRKVPYTFGQGTKLEIKGGSEGKSSGSGSESKSTGGSQVQLQESGPGLVKPSDTLSLTCAVSGNSITSDYAWNWIRQFPGKGLEWMGYISYSGSTTYNPSLKSRVTISRDTSKNQFSLKLSSVTPVDTAVYYCATGYYYGSGFWGQGTLVTVSSTSTPAPRPPTPAPTIASQPLSLRPEACRPAAGGAVHTRGLDFACDIYIWAPLAGTCGVLLLSLVITLYCKRGRKKLLYIFKQPFMRPVQTTQEEDGCSCRFPEEEEGGCELRVKFSRSADAPAYKQGQNQLYNELNLGRREEYDVLDKRRGRDPEMGGKPRRKNPQEGLYNELQKDKMAEAYSEIGMKGERRRGKGHDGLYQGLSTATKDTYDALHMQALPPR	68	30.6
CAR5 (LH_LCD6_HCG5_20AA) (other, also called construct 5; pDR000083438) DIVLTQSPDSLAVSLGERATINCKASESVEYFGTSLMHWYQQKPGQPPKLLIYAASNRESGVPDRFSGSGSGTDFTLTIQSVQAEDVSVYFCQQTRKVPYTFGQGTKLEIKGGSEGKSSGSGSESKSTGGSQVQLQESGPGLVKPSDTLSLTCAVSGNSITSDYAWNWIRQFPGKGLEWMGYISYSGSTTYNPSLKSRVTISRDTSKNQFSLKLSSVTPVDTAVYYCATGYYYGSGFWGQGTLVTVSSTSTPAPRPPTPAPTIASQPLSLRPEACRPAAGGAVHTRGLDFACDIYIWAPLAGTCGVLLLSLVITLYCKRGRKKLLYIFKQPFMRPVQTTQEEDGCSCRFPEEEEGGCELRVKFSRSADAPAYKQGQNQLYNELNLGRREEYDVLDKRRGRDPEMGGKPRRKNPQEGLYNELQKDKMAEAYSEIGMKGERRRGKGHDGLYQGLSTATKDTYDALHMQALPPR	66.4	17.9
CAR10 (LH_LCD6_HCF3_20AA) (other, also called construct 10; pDR000083446) DIVLTQSPDSLAVSLGERATINCKASESVEYFGTSLMHWYQQKPGQPPKLLIYAASNRESGVPDRFSGSGSGTDFTLTIQSVQAEDVSVYFCQQTRKVPYTFGQGTKLEIKGGSEGKSSGSGSESKSTGGSQVQLQESGPGLVKPSDTLSLTCAVSGNSITSDYAWNWIRQFPGKGLEWIGYISYSGSTTYNPSLKSRVTISRDTSKNQFSLKLSSVTPVDTAVYYCATGYYYGSGFWGQGTLVTVSSTSTPAPRPPTPAPTIASQPLSLRPEACRPAAGGAVHTRGLDFACDIYIWAPLAGTCGVLLLSLVITLYCKRGRKKLLYIFKQPFMRPVQTTQEEDGCSCRFPEEEEGGCELRVKFSRSADAPAYKQGQNQLYNELNLGRREEYDVLDKRRGRDPEMGGKPRRKNPQEGLYNELQKDKMAEAYSEIGMKGERRRGKGHDGLYQGLSTATKDTYDALHMQALPPR	60	20.1
CAR6 (LH_LCHumanized_HCF3_20AA) (other, also called construct 6; pDR000083440) DIVLTQSPDSLAVSLGERATINCKASESVEYFGTSLMHWYQQKPGQPPKLLIYAASNRESGVPDRFSGSGSGTDFTLTISSLQAEDVAVYYCQQTRKVPYTFGQGTKLEIKGGSEGKSSGSGSESKSTGGSQVQLQESGPGLVKPSDTLSLTCAVSGNSITSDYAWNWIRQFPGKGLEWIGYISYSGSTTYNPSLKSRVTISRDTSKNQFSLKLSSVTPVDTAVYYCATGYYYGSGFWGQGTLVTVSSTSTPAPRPPTPAPTIASQPLSLRPEACRPAAGGAVHTRGLDFACDIYIWAPLAGTCGVLLLSLVITLYCKRGRKKLLYIFKQPFMRPVQTTQEEDGCSCRFPEEEEGGCELRVKFSRSADAPAYKQGQNQLYNELNLGRREEYDVLDKRRGRDPEMGGKPRRKNPQEGLYNELQKDKMAEAYSEIGMKGERRRGKGHDGLYQGLSTATKDTYDALHMQALPPR	70.3	27.8
CAR8 (LH_LCB7_HCF3_20AA) (other, also called construct 8; pDR000083443) DIVLTQSPDSLAVSLGERATINCKASESVEYFGTSLMHWYQQKPGQPPKLLIYAASNRESGVPDRFSGSGSGTDFTLTISSVQAEDVAVYYCQQTRKVPYTFGQGTKLEIKGGSEGKSSGSGSESKSTGGSQVQLQESGPGLVKPSDTLSLTCAVSGNSITSDYAWNWIRQFPGKGLEWIGYISYSGSTTYNPSLKSRVTISRDTSKNQFSLKLSSVTPVDTAVYYCATGYYYGSGFWGQGTLVTVSSTSTPAPRPPTPAPTIASQPLSLRPEACRPAAGGAVHTRGLDFACDIYIWAPLAGTCGVLLLSLVITLYCKRGRKKLLYIFKQPFMRPVQTTQEEDGCSCRFPEEEEGGCELRVKFSRSADAPAYKQGQNQLYNELNLGRREEYDVLDKRRGRDPEMGGKPRRKNPQEGLYNELQKDKMAEAYSEIGMKGERRRGKGHDGLYQGLSTATKDTYDALHMQALPPR	66.3	21.5
CAR7 (LH_LCHumanized_HCG5_20AA) (other, also called construct 7; pDR000083441) DIVLTQSPDSLAVSLGERATINCKASESVEYFGTSLMHWYQQKPGQPPKLLIYAASNRESGVPDRFSGSGSGTDFTLTISSLQAEDVAVYYCQQTRKVPYTFGQGTKLEIKGGSEGKSSGSGSESKSTGGSQVQLQESGPGLVKPSDTLSLTCAVSGNSITSDYAWNWIRQFPGKGLEWMGYISYSGSTTYNPSLKSRVTISRDTSKNQFSLKLSSVTPVDTAVYYCATGYYYGSGFWGQGTLVTVSSTSTPAPRPPTPAPTIASQPLSLRPEACRPAAGGAVHTRGLDFACDIYIWAPLAGTCGVLLLSLVITLYCKRGRKKLLYIFKQPFMRPVQTTQEEDGCSCRFPEEEEGGCELRVKFSRSADAPAYKQGQNQLYNELNLGRREEYDVLDKRRGRDPEMGGKPRRKNPQEGLYNELQKDKMAEAYSEIGMKGERRRGKGHDGLYQGLSTATKDTYDALHMQALPPR	71.9	35
CAR4 (HL_HCG5_LCB7_20AA) (other, also called construct 4; pDR000083437) QVQLQESGPGLVKPSDTLSLTCAVSGNSITSDYAWNWIRQFPGKGLEWMGYISYSGSTTYNPSLKSRVTISRDTSKNQFSLKLSSVTPVDTAVYYCATGYYYGSGFWGQGTLVTVSSGGSEGKSSGSGSESKSTGGSDIVLTQSPDSLAVSLGERATINCKASESVEYFGTSLMHWYQQKPGQPPKLLIYAASNRESGVPDRFSGSGSGTDFTLTISSVQAEDVAVYYCQQTRKVPYTFGQGTKLEIKTSTPAPRPPTPAPTIASQPLSLRPEACRPAAGGAVHTRGLDFACDIYIWAPLAGTCGVLLLSLVITLYCKRGRKKLLYIFKQPFMRPVQTTQEEDGCSCRFPEEEEGGCELRVKFSRSADAPAYKQGQNQLYNELNLGRREEYDVLDKRRGRDPEMGGKPRRKNPQEGLYNELQKDKMAEAYSEIGMKGERRRGKGHDGLYQGLSTATKDTYDALHMQALPPR	64.3	42.7
CAR3 (HL_HCF3_LCB7_20AA) (other, also called construct 3; pDR000083436) QVQLQESGPGLVKPSDTLSLTCAVSGNSITSDYAWNWIRQFPGKGLEWIGYISYSGSTTYNPSLKSRVTISRDTSKNQFSLKLSSVTPVDTAVYYCATGYYYGSGFWGQGTLVTVSSGGSEGKSSGSGSESKSTGGSDIVLTQSPDSLAVSLGERATINCKASESVEYFGTSLMHWYQQKPGQPPKLLIYAASNRESGVPDRFSGSGSGTDFTLTISSVQAEDVAVYYCQQTRKVPYTFGQGTKLEIKTSTPAPRPPTPAPTIASQPLSLRPEACRPAAGGAVHTRGLDFACDIYIWAPLAGTCGVLLLSLVITLYCKRGRKKLLYIFKQPFMRPVQTTQEEDGCSCRFPEEEEGGCELRVKFSRSADAPAYKQGQNQLYNELNLGRREEYDVLDKRRGRDPEMGGKPRRKNPQEGLYNELQKDKMAEAYSEIGMKGERRRGKGHDGLYQGLSTATKDTYDALHMQALPPR	64.3	29.4
CAR1 (HL_HCG5_LCD6_20AA) (other, also called construct 1; pDR000083431) QVQLQESGPGLVKPSDTLSLTCAVSGNSITSDYAWNWIRQFPGKGLEWMGYISYSGSTTYNPSLKSRVTISRDTSKNQFSLKLSSVTPVDTAVYYCATGYYYGSGFWGQGTLVTVSSGGSEGKSSGSGSESKSTGGSDIVLTQSPDSLAVSLGERATINCKASESVEYFGTSLMHWYQQKPGQPPKLLIYAASNRESGVPDRFSGSGSGTDFTLTIQSVQAEDVSVYFCQQTRKVPYTFGQGTKLEIKTSTPAPRPPTPAPTIASQPLSLRPEACRPAAGGAVHTRGLDFACDIYIWAPLAGTCGVLLLSLVITLYCKRGRKKLLYIFKQPFMRPVQTTQEEDGCSCRFPEEEEGGCELRVKFSRSADAPAYKQGQNQLYNELNLGRREEYDVLDKRRGRDPEMGGKPRRKNPQEGLYNELQKDKMAEAYSEIGMKGERRRGKGHDGLYQGLSTATKDTYDALHMQALPPR	61.9	20
CAR2 (HL_HCG5_LCHumanized_20AA) (other, also called construct 2) QVQLQESGPGLVKPSDTLSLTCAVSGNSITSDYAWNWIRQFPGKGLEWMGYISYSGSTTYNPSLKSRVTISRDTSKNQFSLKLSSVTPVDTAVYYCATGYYYGSGFWGQGTLVTVSSGGSEGKSSGSGSESKSTGGSDIVLTQSPDSLAVSLGERATINCKASESVEYFGTSLMHWYQQKPGQPPKLLIYAASNRESGVPDRFSGSGSGTDFTLTISSLQAEDVAVYYCQQTRKVPYTFGQGTKLEIKTSTPAPRPPTPAPTIASQPLSLRPEACRPAAGGAVHTRGLDFACDIYIWAPLAGTCGVLLLSLVITLYCKRGRKKLLYIFKQPFMRPVQTTQEEDGCSCRFPEEEEGGCELRVKFSRSADAPAYKQGQNQLYNELNLGRREEYDVLDKRRGRDPEMGGKPRRKNPQEGLYNELQKDKMAEAYSEIGMKGERRRGKGHDGLYQGLSTATKDTYDALHMQALPPR	65.4	23.6
